Experiment: soluble on expression in E. coli; label from the status in PepcDB or PDB records

Row | Sequence | soluble on expression in E. coli
1 | SLGQRPPIRRIVIDAAIPTKGITIVDVAKELYKVEGVKAVRITVDDVDVDVLGLAIVVEGVDIDYNELEDVLEKVGGVVHSVDEVVVGEYIPEAGRTA | soluble
2 | MGSDKIHHHHHHMMGKTEYLDYYSGKRVLVTGGAGAVGSNLVRRLLDLGAFVIVIDNLSSGYTWLLPQDAPNLLFIEGDITNDVDLKRVFNEEPEIIFHLAAFFANQNSVDYPEKDLWVNGFGTLKLLEYTRIYGKVERFVYASSGCSIYPSDAPMPFKEDLPISSWMSTPYQITKALGELYCNYFYKMYDIPITKARFFNSFGPGEVPGQYRNVIPNFIYWAMLGKPLPITGTGEETRDFTYVGDIVDGLLRMGYYREAIGEAFNLAAGREVKIKYLAEKVNELTGNTAGIVFKPRRKWDTKPRMLASNEKAKKVLGFNPDPDFDGRLAETVEWFKQNWELIKKSAEFGPGVSSAVR | not soluble
3 | MSLKVTFEQLKAAFNRVLISRGVDSETADACAEMFARTTESGVYSHGVNRFPRFIQQLENGDIIPDAQPKRITSLGAIEQWDAQRSIGNLTAKKMMDRAIELAADHGIGLVALRNANHWMRGGSYGWQAAEKGYIGICWTNSIAVMPPWGAKECRIGTNPLIVAIPSTPITMVDMSMSMFSYGMLEVNRLAGRQLPVDGGFDDEGNLTKEPGVIEKNRRILPMGYWKGSGMSIVLDMIATLLSDGASVAEVTQDNSDEYGISQIFIAIEVDKLIDGPTRDAKLQRIMDYVTSAERADENQAIRLPGHEFTTLLAENRRNGITVDDSVWAKIQALEGHHHHHH | soluble
4 | MSESRLLTLRDYIRWAVSRFHAAGLFFGHGTDNAWDEARHLVLGSLHLPWEISDSYLDCRLEDDERAELAEILRRRIEERIPAAYLLGEAWFCGIPFSVDERVLVPRSPIAELIEQRFAPWLPAEPARILDLCTGSGCIGIACAYAFEQAEVVLADLSFDALEVANVNIERHDLGERVYTVQGDGFAGLPGQRFDLIVSNPPYVDAEDFADMPAEFHHEPELGLACGDDGLDLVRRMLAEAADHLSEKGLLIVEVGNSEVHVQALYPEVDFTWLEFEHGGHGVFMLSAAQCREHRELFRSRLEK | not soluble
5 | MGSDKIHHHHHHMLEGKVAVVTGGGQGIGAAIAQLFAENGMKVVIAEIDEEAGVEREEMLRERGLDVTFVKTDVADENSVKNMVRKTVEIYGGVDVLVNNAAVMSVKSIFERPLEEWERVIRVNLTGPYICSRYCAEEMIKRGGGVIINIASTRAFQSEPDTEPYSASKGGLVALTHSLAVSLSRYHIRVVSISPGWIETSEWKKKSLRKKPDLRPIDHEQHPAGRVGNPLDIAHLCVFLADDEKAGFITGTNFIVDGGMTVKMIYEE | not soluble
6 | MSRLLLVWDAPNLDMGLGALLGGRPTTAHRPRFDAVGRWLLAKAGELAHTTGSKVESEATVFANVVPGSADSIRSWVEALRNVGFAVFAKPKLRDDTDVDPDMLAHIRKRFEEGDLAGVIVASADGRNFQETLDELASAGVAITVIGFHEHATWALADDRITFVDLEEIPGVFREPLPRVSLDNLPEEGAWLKPIRPLSALLSKSK | not soluble
7 | MSLADPGREGHLEQRILQVLTEAGSPVKLAQLVKECQAPKRELNQVLYRMKKELKVSLTSPATWCLGGTDPEGEGPAELALSSPAERPQQHAATIPETPGPQFSQQREEDIYRFLKDNGPQRALVIAQALGMRTAKDVNRDLYRMKSRHLLDMDEQSKAWTIYRPEDSGRRAKSASIIYQHNPINMICQNGPNSWISIANSEAIQIGHGNIITRQTVSREGHHHHHH | not soluble
8 | MSLAVLAPRVASVGVHSIDHFALEVPDLSAAKVFFGAFGLAVDETIDGLELRASASDHVWARVLKGSRKQLAYLSLNCFGDDLAALTAQVETAGGKPCAAHAGAHDPEGFWFEDPDGNRLQIRTGDKTSPGLKKAAVAAKVRRGLRGAAARHEAPAVHPTRLSHVLLFTPDIERAIQFYRDALGLKFSDGSKGIVAFMHGRHGSDHHLVAFVQSSAKGWHHSAWDVPTVEEVGLGKMQMARAGFVDGWGVGRHVLGSNHFHYVRDPWGSFCEYSADIDFVPPGVEWPSADHPPEDSLYLWGPDVPAYFIENTEAQREGHHHHHH | soluble
9 | MSLANAIRRSIPKLNRALVLPAFRSFHDEFSSKIPLEDIRKQTKGKEQHVPSARSIAAKYQVFRDTDAPVILDVDEERQIHEAGLQQPEKIHDLPDMYSGINLSRGKTGVYEIEDLVTVLRLNSAINIFVCTVPKDIKYVDYMCIVTGRSVRHMRGMAEFVRKVFKMKRHPSDIIPKIEGESSSDWMALDLGNIALHIFSTKAREQYDLESLWSVGSEFDREYNKPSEELVQLFEKHTIYLDDLKPLKKEGHHHHHH | not soluble
10 | AEICLITGTPGSGKTLKMVSMMANDEMFKPDENGIRRKVFTNIKGLKIPHTYIETDAKKLPKSTDEQLSAHDMYEWIKKPENIGSIVIVDEAQDVWPARSAGSKIPENVQWLNTHRHQGIDIFVLTQGPKLLDQNLRTLVRKHYHIASNKMGMRTLLEWKICADDPVKMASSAFSSIYTLDKKVYDLYESAEVHTVNKVKRSK | not soluble
11 | MSNFEKRNRKMAEKNIRKPKQERSIEKRNKILQVAKDLFSDKTYFNVTTNEIAKKADVSVGTLYAYFASKEDILTALLKRYNDFFLTTIFADINSQDSLDRFKKNPKEWLNVLINQLLAAEDKIFHAQIEMLAYAIPQAKALLEEHNNNLKNLTYKCLLYYSDQAANPSFKTLSLVVFDFISALVDELLYHEHTQEEAHQIKKTGIDSLDLIIKSYL | soluble
12 | MSLFQITKVEARIANYSLHQDRVIITSLGIHDRSRYLIITLTDELENQGFGEAATVMIWSGEAAETGLWIVQNRITPLLTGSHYDHPSEILTILDRALQGNPFLKASIDIAAWDLWARRQEKPVSALIGDRKPVESVPTRFSIGAYSVEDTVRLAVESWEAGIRTLKIKTGVPGLDDVARLKAVRERLGKEPILTIDANGAYQTEDQAVAAIEELLPFNLALVEQPTPRDRIGMMARVKQRVDVPILADESIFTPGELAEALDCDAMDLLSLYPGKNGGFTNSLKMAQTAQNAGKYCVIGSNMETDLGQAAMVCLAASLTAFPVEEYASDLMTGMIYTASSTSPALELNNGRLLTPLGTGFGVEPLHDEGHHHHHH | soluble
13 | AIADAFEHENRYVHAVYEAIGDHFSATRYRTWPRVQAFLEQLAHEALVLDSGAGNGKYALPVLRQHGYYIAADRCRRLLLRARWQSDALEAQETALLPVECVQADCLFLPFRSGVFDVALSIAVIHHVATARRRVGAVVELGRVLRPTGHALVYVWALRAIPLKLRSRAQSTMDGYLLPWHHKRSTGADALPQKKSDSPSQTYFRFYHLFEEDELRMLVEEANAVSKEGAATTWTLRITGETFDHQNYVVEFQRQNIHALLEDAADNILHPSI | soluble
14 | MGSDKIHHHHHHMYTFTNQFISNDKNVEFLKAAMMGPNAMRLAEELSSHLNIDETMRILDLGCGCGLSTLLLTKKYGASVFAADLWISPTENYERFQSLGIADKAVPISVDATKGLPFAKGYFDLLFTVDAYHYFGDTAAMLPSLIPFVKKGGYIAVAIPGLNYEFEDKVPDEMQPFWNSEMARTLHSLDWWKDLWKKAEGIEMVDSREMACCREAWQEWLTAYHPIVAEDIKMMAAEDGKYFNLVQLIAKVL | not soluble
15 | MIKVLLLDVDGTLLSFETHKVSQSSIDALKKVHDSGIKIVIATGRAASDLHEIDAVPYDGVIALNGAECVLRDGSVIRKVAIPAQDFRKSMELAREFDFAVALELNEGVFVNRLTPTVEQIAGIVEHPVPPVVDIEEMFERKECCQLCFYFDEEAEQKVMPLLSGLSATRWHPLFADVNVAGTSKATGLSLFADYYRVKVSEIMACGDGGNDIPMLKAAGIGVAMGNASEKVQSVADFVTDTVDNSGLYKALKHFGVI | not soluble
16 | MPPRCYNSNSRRAELLERIQSDIPATVAQALSEDLGGEVNADRDLTAQLLPADKQATATIITREDGIFCGQRWLNEVFIQLGAQISIQWLVTDGDKLTANQTLCHLTGPARILLTGERTALNFLQTLSGVATEVSRYVVQLAGLKTQLLDTRKTLPGLRTALKYAVLCGGGNNHRLGLSDAFLIKENHIIAAGSIKEAVAKAFWIHADVPIEVEVESLDELQQALEAGADIVMLDNFTIPMMRDAVKMRDDHAKTQGSAQLEVSGNVTLETLRSYAETGIDFISVGALTKHITALDLSMRFQ | not soluble

From the DeepSol protein solubility set
